Results published in PMC5569669, “Rhenium and Technetium-oxo Complexes with Thioamide Derivatives of Pyridylhydrazine Bifunctional Chelators Conjugated to the Tumour Targeting Peptides Octreotate and Cyclic-RGDfK” (Inorganic Chemistry, 2017).

Assay type: in vitro ADME, human
Experimental: Human blood samples were centrifuged with a Heraeus Labofuge 6000 centrifuge at 3000g for 10 min (Heraeus, Hanau, Germany). Radioactivity readings for serum stability studies were taken with a Capintec CRC-35R dose calibrator (Capintec, New Jersey, USA) and were measured in MBq. Centrifugation of radioactive compounds was undertaken using an Eppendorf 5415 D centrifuge (Eppendorf, Hamburg, Germany). Partition coefficient data were collected with a PerkinElmer, Wizard 1470 (PerkinElmer, Massachusetts, USA) automatic γ counter, which measured the radioactive decay of each sample in counts per minute (cpm).
For serum stability studies, blood from a healthy person (20 mL) was centrifuged (10 min, 3000 rpm) to separate blood plasma and red blood cells. The plasma was transferred to a separate vial and the red blood cells were discarded. An aliquot of plasma (0.6 mL) was added to labeled compound, [^99mTc(HL^3(Tyr^3-Oct))2]^+ (0.15 mL), the radioactivity was monitored and the mixture was then incubated at 37 °C. […] The radioactivity of the supernatant and pellet was recorded. The supernatant (20 μL) was analyzed by analytical RP-HPLC (Column 7, System C) for UV and radioactivity analysis and the pellet were washed with acetonitrile (3 × 0.1 mL), and radioactivity levels were again recorded (radioactivity levels of the pellet were negligible).

Q: For `C[C@@H](O)[C@H](NC(=O)[C@@H]1CSSC[C@H](NC(=O)[C@@H](Cc2ccccc2)NC(=O)c2ccc(NNC(=S)Nc3ccccc3)nc2)C(=O)N[C@@H](Cc2ccc(O)cc2)C(=O)N[C@H](Cc2c[nH]c3ccccc23)C(=O)N[C@@H](CCCCN)C(=O)N[C@@H]([C@@H](C)O)C(=O)N1)C(=O)O` (99mTc complex, metal not drawn) [[^99mTcO(HL^3(Tyr^3-Oct))2]^+], which “degradation products in human plasma” value is on record?
A: Its value is under 5%.

Q: What about the “radioactivity levels of the pellet (precipitated serum proteins)” value of the same compound?
A: The value was “negligible”.
